This is an account of results in IntAct's records for PubMed 19250911.

The assay concerns the target T1, nbr1_human NBR1 (UniProt Q14596).
T1 sequence: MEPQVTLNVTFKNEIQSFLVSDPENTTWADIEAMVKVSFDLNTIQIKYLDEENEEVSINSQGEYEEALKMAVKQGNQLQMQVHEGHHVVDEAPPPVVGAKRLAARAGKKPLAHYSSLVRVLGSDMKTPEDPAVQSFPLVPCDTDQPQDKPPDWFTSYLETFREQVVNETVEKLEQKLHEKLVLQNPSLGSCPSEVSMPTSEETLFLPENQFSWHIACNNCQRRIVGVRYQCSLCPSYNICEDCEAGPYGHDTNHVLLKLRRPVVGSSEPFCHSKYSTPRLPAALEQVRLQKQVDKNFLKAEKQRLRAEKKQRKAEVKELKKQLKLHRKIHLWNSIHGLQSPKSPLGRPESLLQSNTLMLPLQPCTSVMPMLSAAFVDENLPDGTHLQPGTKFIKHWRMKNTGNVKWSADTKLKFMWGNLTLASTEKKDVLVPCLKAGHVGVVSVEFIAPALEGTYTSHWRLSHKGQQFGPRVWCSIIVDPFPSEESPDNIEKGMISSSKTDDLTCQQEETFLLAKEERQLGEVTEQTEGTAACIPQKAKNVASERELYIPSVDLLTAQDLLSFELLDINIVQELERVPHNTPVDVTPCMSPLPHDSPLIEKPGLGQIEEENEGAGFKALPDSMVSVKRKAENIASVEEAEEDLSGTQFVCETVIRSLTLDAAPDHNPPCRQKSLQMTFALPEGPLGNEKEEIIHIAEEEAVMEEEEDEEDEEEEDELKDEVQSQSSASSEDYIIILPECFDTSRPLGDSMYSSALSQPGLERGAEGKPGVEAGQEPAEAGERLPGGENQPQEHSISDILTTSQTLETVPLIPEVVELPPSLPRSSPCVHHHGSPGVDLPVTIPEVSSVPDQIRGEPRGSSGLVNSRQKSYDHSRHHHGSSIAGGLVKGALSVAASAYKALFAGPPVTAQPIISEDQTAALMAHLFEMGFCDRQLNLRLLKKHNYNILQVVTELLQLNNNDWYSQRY

With “Microtubule-associated protein 1 light chain 3 beta (Homo sapiens) (from UniProt Q9GZQ8) R10A;R11A”, the “effect of a mutation on the interaction” value is on record as “decreasing interaction”.

“Microtubule-associated protein 1 light chain 3 beta (Homo sapiens) (from UniProt Q9GZQ8) R70A”: the “effect of a mutation on the interaction” value is “disrupting interaction”.
